Assay results: patent US9688764B2, “Methods of treating breast cancer by administering anti-human prolactin receptor (PRLR) antibodies” (REGENERON PHARMACEUTICALS, INC., priority 2013, dated 2017)
Read-outs that look alike come from different tables or passages of the source.

Experiments:
[1] = test system: MCF7/hPRLR (MCF7/PRLR) cells; test: Cell viability (cell kill) assay, nuclear counts; assay type: cell-based, human
Source text: (§1) PRLR-overexpressing cells, including HEK293, PC3, MCF7 and NCI-N87, were generated to assess the ability of anti-PRLR conjugated antibodies to reduce cell viability. For comparative purposes, PC3 and T47D cells with overexpressed ErbB2 were also generated, as well as an MCF7 cell line over-expressing both hPRLR and hErbB2. Briefly, Lipofectamine® 2000-mediated transfection methodology was utilized to generate HEK293 cells expressing human PRLR (HEK293/hPRLR) or human ErbB2 (HEK293/hErbB2). Lipofectamine LTX with Plus Reagent was used to generate PC3 cells expressing human PRLR (PC3/hPRLR) or human ErbB2 (PC3/hErbB2). Lentiviral-mediated transduction was utilized to generate MCF7 cells expressing human PRLR (MCF7/hPRLR), NCI-N87 cells expressing human PRLR (NCI-N87/hPRLR), T47D cells over-expressing human ErbB2 (T47D/hErbB2), and MCF7 cells expressing both human PRLR and human ErbB2 (MCF7/hPRLR/hErbB2). All lines were selected for at least two weeks in complete growth media plus appropriate selection reagents. Stably expressing populations were enriched for PRLR expression via FACS using the anti PRLR antibody Control I.
(§2) Next, the ability of anti-PRLR-DM1 antibody-drug conjugates (i.e., anti-PRLR antibodies conjugated to DM1 via a non-cleavable linker [SMCC]) to reduce cell viability was determined using in vitro cell based assays. Cells were seeded in PDL-coated 96 well plates at 1500 to 10000 cells per well in complete growth media and allowed to grow overnight. For cell viability curves, ADCs or free DM1 (as the methyl disulfide derivative DM1-SMe) were added to the cells at final concentrations ranging from 500 nM to 5 pM and incubated for 3 days. The 293, PC3 and T47D cells were incubated with CCK8 (Dojindo, Rockville, Md.) for the final 1-3 hours and the absorbance at 450 nm (OD450) was determined on a Flexstation3 (Molecular Devices, Sunnyvale, Calif.). MCF7 cells were treated with Hoechst 33342 nuclear stain while being fixed with 4% formaldehyde. Images were acquired on the ImageXpress micro XL (Molecular Devices, Sunnyvale, Calif.) and nuclear counts were determined via Columbus image analysis software (Perkin Elmer, Shelton, Conn.). Background OD450 values (PC3, 293, and T47D) or nuclear counts (MCF7) from digitonin (40 nM) treated cells was subtracted from all wells and viability was expressed as a percentage of the untreated controls. IC50 values were determined from a four-parameter logistic equation over a 10-point response curve (GraphPad Prism).
(§3) Finally, the potency of anti-PRLR antibodies conjugated to DM1 via the non-cleavable linker SMCC was compared to the cell killing potency of anti-PRLR antibodies conjugated to MMAE via the cleavable linker: mc-vc-PAB (available from Concortis, San Diego, Calif.). Cells used in this experiment were PC3, PC3/hPRLR, MCF7/ATCC and MCF7/PRLR.
(§4) Additional toxins (DM4, MeNHC3-May, and MMD) conjugated to anti-PRLR antibodies were also tested in T47D and MCF7/hPRLR cell lines, and results are summarized in Tables 19 (293 and T47D cell killing) and 20 (MCF7/ATCC and MCF7/PRLR cell killing). (ND=not detected).

HEK293 (293) cells = test: Cell viability (cell kill) assay; assay type: cell-based
Source text: as §1, §2

MCF7 (MCF7/ATCC) cells = test: Cell viability (cell kill) assay, nuclear counts; assay type: cell-based; conditions: MCF7/ATCC
Source text: as §1, §2, §3, §4

T47D cells = test: Cell viability (cell kill) assay; assay type: cell-based; conditions: T47D; for IC50: read-out: IC50
Protocol: as §2
Additionally, the impact of the PRLR ligand, PRL, on PRLR-SMCC-DM1 cell kill in T47D cells was assessed. T47D cells were incubated simultaneously with PRL (15 nM) and either a non-blocking anti PRLR antibody (H1H6782P) or a receptor blocking antibody (H1H6958N2).
as §4

PC3/hPRLR cells = test: Cell viability (cell kill) assay; assay type: cell-based, human; conditions: PC3/hPRLR; Table 18
Source text: as §1, §2, §3

Molecule	% Kill ([1]; Table 20)	IC50 ([1]; Table 20)	% Kill (HEK293 (293) cells; 293, Table 19)	IC50 (HEK293 (293) cells; 293, Table 19)	% Kill (MCF7 (MCF7/ATCC) cells; Table 20)	IC50 (MCF7 (MCF7/ATCC) cells; Table 20)	% Kill (T47D cells; Table 19)	IC50 (T47D cells; Table 19)	% Kill (PC3/hPRLR cells)	IC50 (PC3/hPRLR cells)	% Kill ([1]; Table 18)	IC50 ([1]; Table 18)	% Kill (MCF7 (MCF7/ATCC) cells; Table 18)	IC50 (MCF7 (MCF7/ATCC) cells; Table 18)	IC50 (HEK293 (293) cells; HEK293, Table 13, + 15 nM PRL)	IC50 (HEK293 (293) cells; HEK293, Table 13, without PRL)	IC50 (T47D cells; Table 13, + 15 nM PRL)	IC50 (T47D cells; Table 13, without PRL)
COc1cc2cc(c1Cl)N(C)C(=O)CC(OC(=O)C(C)N(C)C(=O)CCSSC)C1(C)OC1C(C)C1CC(O)(NC(=O)O1)C(OC)C=CC=C(C)C2 (stereo not drawn) [Free DM1 (Me-SS-May)]	80%	0.8 nM	95%	1.2 nM	80%	1.3 nM	100%	1.5 nM	–	–	–	–	–	–	–	–	–	–
H1H6953N-mc-VC-PAB-MMAE (conjugate) VH: EVQLLESGGGLVQPGGTLRLSCAASGFTFSAYAMSWVRQAPGKGLEWVSSINVRAGDTYYADSVKGRFTISRDNSKNTLFLLMNSLRAEDTAAYYCAKARYSSNWGFDFWGQGTLVTVSS VL: DIVMTQSPDSLTVSLGARTTINCQSSQTILHSSNNHNYLAWYQQKPGLPPKLLIYWSSTRESGVPDRFSGSGSGTDFTLTISSLQAEDVAIYYCQQYSNTPYTFGQGTKLEIN	85%	0.1 nM	–	–	40%	150 nM	80%	1 nM	80%	0.2 nM	85%	0.1 nM	42%	150 nM	–	–	–	–
H1H6953N-mc-VC-PAB-MMD (conjugate) VH: EVQLLESGGGLVQPGGTLRLSCAASGFTFSAYAMSWVRQAPGKGLEWVSSINVRAGDTYYADSVKGRFTISRDNSKNTLFLLMNSLRAEDTAAYYCAKARYSSNWGFDFWGQGTLVTVSS VL: DIVMTQSPDSLTVSLGARTTINCQSSQTILHSSNNHNYLAWYQQKPGLPPKLLIYWSSTRESGVPDRFSGSGSGTDFTLTISSLQAEDVAIYYCQQYSNTPYTFGQGTKLEIN	90%	0.2 nM	70%	–	50%	–	90%	1 nM	–	–	–	–	–	–	–	–	–	–
H1H6953N-mc-VC-PAB-MeNHC3-May (conjugate) VH: EVQLLESGGGLVQPGGTLRLSCAASGFTFSAYAMSWVRQAPGKGLEWVSSINVRAGDTYYADSVKGRFTISRDNSKNTLFLLMNSLRAEDTAAYYCAKARYSSNWGFDFWGQGTLVTVSS VL: DIVMTQSPDSLTVSLGARTTINCQSSQTILHSSNNHNYLAWYQQKPGLPPKLLIYWSSTRESGVPDRFSGSGSGTDFTLTISSLQAEDVAIYYCQQYSNTPYTFGQGTKLEIN	80%	0.2 nM	–	–	60%	150 nM	90%	1 nM	–	–	–	–	–	–	–	–	–	–
H1H6765P-SMCC-DM1 (conjugate) VH: EVQLVESGGGVVRPGGSLRLSCVGSGFSFDDHGMNWVRQGPGKGLEWVSGFNWNGGSTNYAESVKGRFTISRDNARNSLFLQMNSLRAEDTALYYCVRGRSGWFNDAFDVWGPGTMVTVSS VL: EIVLTQSPGTLSLSPGERATLSCRASQTINSNYLAWYRQKPGQTPRLLIYGTSSRATGIPDRFSGSGSGTDFSLTISRLEPEDFAVFYCQQYAGLPTFGPGTKVDIK	90%	0.3 nM	100%	85 nM	70%	150 nM	90%	1 nM	83%	0.3 nM	81%	0.1 nM	71%	90 nM	–	–	–	–
H1H6782P-SMCC-DM1 (conjugate) VH: EVQLVESGGGLVQPGRSLRLSCAASGFTFDDYAMHWVRQAPGKGLEWVSGIIWNSGHIGYGDSVKGRFTISRDNAKKSLYLQMNSLRAEDTALYYCARDSGRYQSYFDYWGQGTLVTVSS VL: DIQMTQSPSTLSASVGDRVTITCRASHIISSWLAWYQQKPGKAPKVLIFKASSLESGVPSRFSGSGSGTEFTLTISSLQPDDFATYYCQQYNTYSRTFGQGTKVEIK	80%	0.3 nM	80%	120 nM	70%	250 nM	100%	3 nM	–	–	–	–	–	–	70 nM	90 nM	2 nM	1 nM
H1H6782P-mc-VC-PAB-MMD (conjugate) VH: EVQLVESGGGLVQPGRSLRLSCAASGFTFDDYAMHWVRQAPGKGLEWVSGIIWNSGHIGYGDSVKGRFTISRDNAKKSLYLQMNSLRAEDTALYYCARDSGRYQSYFDYWGQGTLVTVSS VL: DIQMTQSPSTLSASVGDRVTITCRASHIISSWLAWYQQKPGKAPKVLIFKASSLESGVPSRFSGSGSGTEFTLTISSLQPDDFATYYCQQYNTYSRTFGQGTKVEIK	90%	0.3 nM	70%	–	50%	200 nM	90%	2 nM	–	–	–	–	–	–	–	–	–	–
H1H6782P-mc-VC-PAB-MeNHC3-May (conjugate) VH: EVQLVESGGGLVQPGRSLRLSCAASGFTFDDYAMHWVRQAPGKGLEWVSGIIWNSGHIGYGDSVKGRFTISRDNAKKSLYLQMNSLRAEDTALYYCARDSGRYQSYFDYWGQGTLVTVSS VL: DIQMTQSPSTLSASVGDRVTITCRASHIISSWLAWYQQKPGKAPKVLIFKASSLESGVPSRFSGSGSGTEFTLTISSLQPDDFATYYCQQYNTYSRTFGQGTKVEIK	80%	0.2 nM	90%	–	50%	250 nM	90%	2 nM	–	–	–	–	–	–	–	–	–	–
H1H6958N2-SPDB-DM4 (conjugate) VH: QVQLVESGGGVVQPGRSLRLSCGASGFTFRNYGMQWVRQGPGKGLEWVTLISFDGNDKYYADSVKGRFTISRDNSKNTLFLQMNSLRTEDTAVYYCARGGDFDYWGQGTLVTVSS VL: DIQMTQSPSSLSASVGDRVTITCRASQDIRKDLGWYQQKPGKAPKRLIYAASSLHSGVPSRFSGSGSGTEFTLTISSLQPEDFATYYCLQHNSYPMYTFGQGTKLEIK	90%	0.8 nM	–	–	80%	25 nM	100%	1 nM	–	–	–	–	–	–	–	–	–	–
H1H6975P-SMCC-DM1 (conjugate) VH: EVHLVESGGGLVQPGGSLRLSCAASGFTFSSYEMNWVRQTPGKGLEWISHISSRSVIIYYADSVKGRFTISRDNAKNSLFLQMNSLRAEDTAVYFCAGITIFGIPEYWGQGTLVTVSS VL: EIVLTQSPATLSLSPGERATLSCRASQSVSSYFAWYQQKPGQAPRLLIYDASSRATGIPTRFSGSGSGTDFTLTISSLEPEDFAVYYCQQRSSWPITFGQGTRLEIK	80%	0.2 nM	90%	80 nM	70%	200 nM	100%	2 nM	–	–	–	–	–	–	–	–	–	–
H1H6975P-mc-VC-PAB-MMD (conjugate) VH: EVHLVESGGGLVQPGGSLRLSCAASGFTFSSYEMNWVRQTPGKGLEWISHISSRSVIIYYADSVKGRFTISRDNAKNSLFLQMNSLRAEDTAVYFCAGITIFGIPEYWGQGTLVTVSS VL: EIVLTQSPATLSLSPGERATLSCRASQSVSSYFAWYQQKPGQAPRLLIYDASSRATGIPTRFSGSGSGTDFTLTISSLEPEDFAVYYCQQRSSWPITFGQGTRLEIK	90%	0.2 nM	80%	–	50%	150 nM	90%	3 nM	–	–	–	–	–	–	–	–	–	–
